Measured values: the RNAGym collection of RNA variant scans (doi:10.1073/pnas.2313332121)

B1: TPR t1 (parent)
chain: GACCAAUCUGCCCUCAGAGCUCGAGAACAUCUUCGGAUGCAGAGGAGGCAGGCUUCGGUGGCGCGAUAGCGCCAACGUCCUCAACCUCCAAUGCAUCCCACCACAUGAUGAUGCCUGAAGAGCCUUGGUUUUUUG

Variants of: B1
Test: polymerase ribozyme fitness, log enrichment relative to wild type (log ratio); higher = more active; in vitro selection for triplet polymerase activity
Summary of the method: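 Fitness compares each genotype's enrichment to that of the wild type on a logarithmic scale, averaging replicates with inverse-variance weights. The logarithm is base 2. Enrichment came from Illumina sequencing of input and output libraries after one triplicate round of in vitro selection, which included frozen incubation at −7 °C, of PCR-built, transcribed mutant libraries of each subunit of a heterodimeric triplet polymerase ribozyme. Only genotypes with ≥10 input reads and ≥1 read per output were kept.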

Variant | polymerase ribozyme fitness (log ratio)
C11G G69A | -2.73
G63A U130G | -0.913
G120A G127A U129C | -1.04
A91U G117A G120C G135C | -3.63
C20A A41C G71A C82A | -5.71
A43C U92G C101A U132A | -4.9
C88A U129A | -2.21
A27U C70A | -4.74
A16C C73U C115G | -3.06
G44A G51A C80U C86A C124G | -0.462
G39A G113U | -2.43
C8U C73A A84U G128A | -1.97
C20U G42U C56A A74U C115G | -4.76
U14C A26G A50G G52C U106C G117A | -5.87
C15U A43U A84C | -2.66
C56A C70U C80U G120C C123G | -1.95
U7C C8G G17U C40A C89G A91C U126G | -4.01
G58U C86U G110U G122A | -3.85
C20G U106A | -4.68
C28G C56G C86U C124U | -1.07
C73G A91G | -2.69

Variant | polymerase ribozyme fitness (log ratio)
G10A G120U | 1.07
G69C U133G | -1.57
U30C C97G A108U U112A C124G | -7.16
G71C C114A G127U | -5.17
U55G U81A A119U | -1.33
C70U G113A C123A | -2.31
C20A G45U A100U | -5.17
C8G C34U C53G A90U G120A | -5.88
G42A A46G G120U | -2.64
C15A C62U | -2.04
G45C G63A U106A | -1.21
A18C C64U | -2.61
C49A C53U C101A | -1.38
G69A C80U | -2.58
A26G C28U G35A U87G C124A | -4.92
U7C U21C G61U A83G G120A | -0.41
U33A G44C G57U A121G | -4.61
G10U C53G U55A C56A G63A | -2.18
U14A A74G | -2.63
A18G G19U A46G U59A C79A | -4.25
C53A C115U | -0.961

Variant | polymerase ribozyme fitness (log ratio)
C56G G113A | -1.08
A16U A83C G120U C123A G127C U131A | -1.95
U134A | 0.465
G17U A27U G61U | -6.16
C13A U112C | -0.888
G71U C101U C115A | -0.712
U78C A121C | 1.83
A5U A6G G45C G69U A95U | -2.34
C13U G52U C85U | -2.32
G10C A18C C62U U133A | -3.86
C12U A37C C94G G110A | -3.55
C8A G36A G60U C82A G117C U131A G135U | -5.4
A37U U130G | -1.28
A5C A24G G48U G110A C124U U131C | -4.58
C79A G110C | -5.36
C56A U81A A83C | -2.85
A29G U109C | 0.997
G110C A119U | -1.71
C8U G48A | -0.239
C12A G47A C72G G93A G135U | -4.39
G10A U21A A27G C53A | -0.87

Variant | polymerase ribozyme fitness (log ratio)
C34A A37U G48U C64G A68G C94G G120U | -7.45
C8G A27U G93U | -3.29
G60A A83C C101G G128C | -4.75
C12U G36U C104U C123G | 0.937
C15G A74U G117U | -0.0169
U112A U126C | 0.739
U54A U59A C80A C82G C123U | -2.88
C22G G42U G44U C89U | -4.83
C13A G19A G113U | -3.81
C15A G45U G61U A84U C123U | -2.78
C12U G39U C62A U78A | -1.41
C8G G19C A75U C89G | -2.29
U7C U14A U32A C53G G63C G120A | -4.32
C70U G107A | -5.06
U14A U78C | -2.86
G23U G35A A46U G47U G71A G117C U130A | -6.34
U38G C56G G57C G77U | -1.18
C13A U21A A29U | -4.11
G19U U59G U106G U112A | -2.43
C28U A43U G48U G52C C86A C101A G117C C124U | -7.22
